Series [1] concerns the target purified YibK protein with R146C (21.6 kDa monomer) (UniProt P44868). The series is described as follows: SDS-PAGE without reducing agent and Western blot (disulfide-linked dimer); purified YibK protein, no reducing agent. Background: A western blot detects proteins with antibodies after separation by electrophoresis.
The series “two-hybrid” deals with the molecule itself. Kind of series: two-hybrid.

Data on 2 molecules can be found in paper PMC8514426 (Nature Communications, 2021).

What is called stoichiometry N is a count of units in the complex or per binding partner.

Molecule “purified YibK protein with R146C (21.6 kDa monomer) (from UniProt P44868) (natural protein)” displayed a stoichiometry N in series [1] of 2.

B1: wild-type YibK–SH2 (expressed as SS–YibK–SH2) (natural protein)
chain: MLDIVLYEPEIPQNTGNIIRLCANTGFRLHLIEPLGFTWDDKRLRRSGLDYHEFAEIKRHKTFEAFLESEKPKRLFALTTKGCPAHSQVKFKLGDYLMFGPETRGIPMSILNEMPMEQKIRIPMTANSRSMNLSNSVAVTVYEAWRQLGYKGAVNLPEVK
notes: also called WT; not shown: SH2 domain of ABL1 kinase, C-terminal, kept
Turning to B1, the “fold P_cadBA transcriptional activation over cytoplasmic YibK–SH2” value in “two-hybrid” came out at 66 fold.
